Measurements taken from US20200087416A1 (Innovent, published 2020).
Residue numbers refer to the chain shown, from its start. Values belong to the binder of their own block, whether it stands above or below them.

Tests used:
[1] = target: T1, human PCSK9 (PCSK9 antigen, SEQ ID NO. 53) (human, UniProt A8T644 31-152; Q8NBP7 153-692, Biotin-labelled on amines in the MSD-SET and sorting experiments; positions not given.); assay: flow cytometry, PCSK9 left on CHO-LDLR cells (anti-His-FITC) after premix with 0.1 nM antibody
T1 construct: Biotin-labelled in MSD-SET; also called PCSK9-WT; PCSK9 protein

[2] = target: T1, human PCSK9 (PCSK9 antigen, SEQ ID NO. …); assay: flow cytometry, PCSK9 left on CHO-LDLR cells (anti-His-FITC) after premix with 1000 nM antibody
murine PCSK-9 [3] = target: T2, murine PCSK-9 (murine, UniProt Q80W65 35-694); assay: BLI (ForteBio), IgG on AHQ sensor, 100 nM antigen
T2 construct: also called mouse PCSK9

[4] = target: T1, human PCSK9 (PCSK9 antigen, SEQ ID NO. …); assay: BLI (ForteBio), IgG on AHQ sensor, 100 nM antigen
[5] = target: T1, human PCSK9 (PCSK9 antigen, SEQ ID NO. …); assay: flow cytometry, PCSK9 left on CHO-LDLR cells (anti-His-FITC) after premix with 10 nM antibody
[6] = target: T1, human PCSK9 (PCSK9 antigen, SEQ ID NO. …); assay: flow cytometry, PCSK9 left on CHO-LDLR cells (anti-His-FITC) after premix with 100 nM antibody
[7] = target: T1, human PCSK9 (PCSK9 antigen, SEQ ID NO. …); assay: cell-based or functional assay
[8] = target: T1, human PCSK9 (PCSK9 antigen, SEQ ID NO. …); assay: flow cytometry, PCSK9 left on CHO-LDLR cells (anti-His-FITC) after premix with 1 nM antibody
murine PCSK-9 [9] = target: T2, murine PCSK-9; assay: MSD-SET, Fab with biotin-PCSK9 in solution, IgG on plate, pH 7.4
[10] = target: T1, human PCSK9 (PCSK9 antigen, SEQ ID NO. …); assay: as above
[11] = target: T1, human PCSK9 (PCSK9 antigen, SEQ ID NO. …); assay: MSD-SET, Fab with biotin-PCSK9 in solution, IgG on plate, pH 6.0
For BODIPY-LDL uptake by HepG2 cells, fluorescence, 16.8 nM, replicate 1 in this document: unit not given here.
For BODIPY-LDL uptake by HepG2 cells, fluorescence, 16.8 nM, replicate 2 in this document: unit not given here.
For BODIPY-LDL uptake by HepG2 cells, fluorescence, 4.2 nM, replicate 1 in this document: unit not given here.
For BODIPY-LDL uptake by HepG2 cells, fluorescence, 4.2 nM, replicate 2 in this document: unit not given here.
For BODIPY-LDL uptake by HepG2 cells, fluorescence, 66.7 nM, replicate 1 in this document: unit not given here.
For BODIPY-LDL uptake by HepG2 cells, fluorescence, 66.7 nM, replicate 2 in this document: unit not given here.

B2: Bococizumab (antibody, V domains shown)
VH: QVQLVQSGAEVKKPGASVKVSCKASGYTFTSYYMHWVRQAPGQGLEWMGEISPFGGRTNYNEKFKSRVTMTRDTSTSTVYMELSSLRSEDTAVYYCARERPLYASDLWGQGTTVTVSS
VL: DIQMTQSPSSLSASVGDRVTITCRASQGISSALAWYQQKPGKAPKLLIYSASYRYTGVPSRFSGSGSGTDFTFTISSLQPEDIATYYCQQRYSLWRTFGQGTKLEIK
Fluorescence Signal Value [1]: 7100
Fluorescence Signal Value [2]: 6040
Kd (murine PCSK-9 [3]): 0.663 nM
Kd [4]: 0.386 nM
Fluorescence Signal Value [5]: 6270
Fluorescence Signal Value [6]: 5310
Fluorescence Signal Value [8]: 6960

B4: ADI-02396 (antibody, human IgG2, kappa, V domains shown)
VH: QLQLQESGPGLVKPSETLSLTCTVSGGSISSSSYYWGWIRQPPGKGLEWIGSIYYSGSTYYNPSLKSRVTISVDTSKNQFSLKLSSVTAADTAVYYCAREGSGVVPAAGPNWFDPWGQGTLVTVSS
VL: EIVLTQSPATLSLSPGERATLSCRASQSVSSYLAWYQQKPGQAPRLLIYDASNRATGIPARFSGSGSGTDFTLTISSLEPEDFAVYYCQQRRNWFTFGGGTKVEIKR
notes: IgG; also called parent antibody
Kd (murine PCSK-9 [3]): 78.3 nM
Kd [4]: 9.5 nM
BODIPY-LDL uptake by HepG2 cells, fluorescence, 4.2 nM, replicate 1 [7]: 0.366
BODIPY-LDL uptake by HepG2 cells, fluorescence, 4.2 nM, replicate 2 [7]: 0.352
BODIPY-LDL uptake by HepG2 cells, fluorescence, 16.8 nM, replicate 1 [7]: 0.404
BODIPY-LDL uptake by HepG2 cells, fluorescence, 16.8 nM, replicate 2 [7]: 0.341
BODIPY-LDL uptake by HepG2 cells, fluorescence, 66.7 nM, replicate 1 [7]: 0.432
BODIPY-LDL uptake by HepG2 cells, fluorescence, 66.7 nM, replicate 2 [7]: 0.401

B5: ADI-10088 Fab (Fab, V domains shown)
VH: B4 VH with S30G, G37A, Y54N, S56R, G101N
VL: B4 VL
Kd (murine PCSK-9 [9]): 0.087 nM
Kd [10]: 0.01 nM
Kd [11]: 0.016 nM

B6: ADI-10086 Fab (Fab, V domains shown)
VH: B4 VH with S30R, S33A, Y54N, S56R, G101N, D114G
VL: B4 VL
Kd (murine PCSK-9 [9]): 0.06 nM
Kd [10]: 0.0086 nM
Kd [11]: 0.013 nM

B8: ADI-10090 (antibody, human IgG2, kappa, V domains shown)
VH: B4 VH with S30W, G37T, Y54N, S56R, G101N
VL: B4 VL
notes: IgG
Fluorescence Signal Value [1]: 6810
Fluorescence Signal Value [2]: 4820
Kd (murine PCSK-9 [3]): 0.674 nM
Kd [4]: 0.352 nM
Fluorescence Signal Value [5]: 5810
Fluorescence Signal Value [6]: 4810
Fluorescence Signal Value [8]: 6750

B9: ADI-09111 Fab (Fab, V domains shown)
VH: B4 VH with G101N
VL: B4 VL
Kd (murine PCSK-9 [9]): 3.5 nM
Kd [10]: 0.7 nM
Kd [11]: 1.9 nM

B11: ADI-09112 Fab (Fab, V domains shown)
VH: B4 VH with S64F, G101N, D114G
VL: B4 VL
Kd (murine PCSK-9 [9]): 1.2 nM
Kd [10]: 0.22 nM

B12: ADI-10090 Fab (Fab, V domains shown)
VH: B4 VH with S30W, G37T, Y54N, S56R, G101N
VL: B4 VL
Kd (murine PCSK-9 [9]): 0.12 nM
Kd [10]: 0.017 nM
Kd [11]: 0.021 nM

B14: ADI-09113 Fab (Fab, V domains shown)
VH: B4 VH with I29V, I53A, G101N
VL: B4 VL
Kd (murine PCSK-9 [9]): 0.76 nM
Kd [10]: 0.17 nM
Kd [11]: 0.65 nM

The remaining lines, values ahead:

Fluorescence Signal Value [1]: 7170
Fluorescence Signal Value [2]: 4930
Kd (murine PCSK-9 [3]): 2.66 nM
Kd [4]: 0.0301 nM
Fluorescence Signal Value [5]: 5750
Fluorescence Signal Value [6]: 4950
BODIPY-LDL uptake by HepG2 cells, fluorescence, 4.2 nM, replicate 1 [7]: 0.364
BODIPY-LDL uptake by HepG2 cells, fluorescence, 4.2 nM, replicate 2 [7]: 0.37
BODIPY-LDL uptake by HepG2 cells, fluorescence, 16.8 nM, replicate 1 [7]: 0.396
BODIPY-LDL uptake by HepG2 cells, fluorescence, 16.8 nM, replicate 2 [7]: 0.392
BODIPY-LDL uptake by HepG2 cells, fluorescence, 66.7 nM, replicate 1 [7]: 0.686
BODIPY-LDL uptake by HepG2 cells, fluorescence, 66.7 nM, replicate 2 [7]: 0.716
Fluorescence Signal Value [8]: 6980
B1: Alirocumab (antibody, V domains shown)
VH: EVQLVESGGGLVQPGGSLRLSCAASGFTFNNYAMNWVRQAPGKGLDWVSTISGSGGTTNYADSVKGRFIISRDSSKHTLYLQMNSLRAEDTAVYYCAKDSNWGNFDLWGRGTLVTVSS
VL: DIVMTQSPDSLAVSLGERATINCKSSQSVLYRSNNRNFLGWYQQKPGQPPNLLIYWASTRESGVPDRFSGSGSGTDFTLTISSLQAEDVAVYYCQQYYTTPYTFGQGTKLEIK

Fluorescence Signal Value [1]: 8400
Fluorescence Signal Value [2]: 7330
Kd [4]: 1.51 nM
Fluorescence Signal Value [5]: 7330
Fluorescence Signal Value [6]: 8760
BODIPY-LDL uptake by HepG2 cells, fluorescence, 4.2 nM, replicate 1 [7]: 0.318
BODIPY-LDL uptake by HepG2 cells, fluorescence, 4.2 nM, replicate 2 [7]: 0.352
BODIPY-LDL uptake by HepG2 cells, fluorescence, 16.8 nM, replicate 1 [7]: 0.317
BODIPY-LDL uptake by HepG2 cells, fluorescence, 16.8 nM, replicate 2 [7]: 0.314
BODIPY-LDL uptake by HepG2 cells, fluorescence, 66.7 nM, replicate 1 [7]: 0.33
BODIPY-LDL uptake by HepG2 cells, fluorescence, 66.7 nM, replicate 2 [7]: 0.312
Fluorescence Signal Value [8]: 8760
B3: Lodelcizumab (antibody, V domains shown)
VH: QVQLVQSGAEVKKPGASVKVSCKASGYTFSTMYMSWVRQAPGQGLEWMGRIDPANEHTNYAQKFQGRVTMTRDTSISTAYMELSRLTSDDTAVYYCARSYYYYNMDYWGQGTLVTVSS
VL: QIVLTQSPATLSVSPGERATLSCRASQSVSYMHWYQQKPGQAPRLLIYGVFRRATGIPDRFSGSGSGTDFTLTIGRLEPEDFAVYYCLQWSSDPPTFGQGTKLEIK

Kd (murine PCSK-9 [9]): 0.041 nM
Kd [10]: 0.005 nM
Kd [11]: 0.0098 nM
B7: ADI-10087 Fab (Fab, V domains shown)
VH: B4 VH with S32A, G37S, Y54N, S56R, G101N, D114G
VL: B4 VL

Kd (murine PCSK-9 [9]): 0.07 nM
Kd [10]: 0.011 nM
Kd [11]: 0.01 nM
B10: ADI-10089 Fab (Fab, V domains shown)
VH: B4 VH with S30G, G37T, Y54N, S56R, G101N
VL: B4 VL

Fluorescence Signal Value [1]: 6600
Fluorescence Signal Value [2]: 5270
Kd (murine PCSK-9 [3]): 0.607 nM
Kd [4]: 0.336 nM
Fluorescence Signal Value [5]: 5830
Fluorescence Signal Value [6]: 5130
Fluorescence Signal Value [8]: 6920
B13: ADI-10086 (antibody, human IgG2, kappa, V domains shown)
VH: B4 VH with S30R, S33A, Y54N, S56R, G101N, D114G
VL: B4 VL
notes: IgG

Fluorescence Signal Value [1]: 6990
Fluorescence Signal Value [2]: 4800
Kd (murine PCSK-9 [3]): 114 nM
Kd [4]: 1.03 nM
Fluorescence Signal Value [5]: 5780
Fluorescence Signal Value [6]: 5100
BODIPY-LDL uptake by HepG2 cells, fluorescence, 4.2 nM, replicate 1 [7]: 0.351
BODIPY-LDL uptake by HepG2 cells, fluorescence, 4.2 nM, replicate 2 [7]: 0.36
BODIPY-LDL uptake by HepG2 cells, fluorescence, 16.8 nM, replicate 1 [7]: 0.355
BODIPY-LDL uptake by HepG2 cells, fluorescence, 16.8 nM, replicate 2 [7]: 0.363
BODIPY-LDL uptake by HepG2 cells, fluorescence, 66.7 nM, replicate 1 [7]: 0.724
BODIPY-LDL uptake by HepG2 cells, fluorescence, 66.7 nM, replicate 2 [7]: 0.778
Fluorescence Signal Value [8]: 6810
B15: Evolocumab (antibody, V domains shown)
VH: QVQLVQSGAEVKKPGASVKVSCKASGYTLTSYGISWVRQAPGQGLEWMGWVSFYNGNTNYAQKLQGRGTMTTDPSTSTAYMELRSLRSDDTAVYYCARGYGMDVWGQGTTVTVSS
VL: QSALTQPASVSGSPGQSITISCTGTSSDVGGYNSVSWYQQHPGKAPKLMIYEVSNRPSGVSNRFSGSKSGNTASLTISGLQAEDEADYYCNSYTSTSMVFGGGTKLTVL
